Assay results as given in patent US20090311686A1 (GIVAUDAN, published 2009).
No end group written: not given here.

What was measured:
Test in all cases: cell-based or functional assay
[1] = biological target: T1, human calcium-sensing receptor (hCaSR), full length (human, UniProt Q8TE23 20-839)
T1 sequence: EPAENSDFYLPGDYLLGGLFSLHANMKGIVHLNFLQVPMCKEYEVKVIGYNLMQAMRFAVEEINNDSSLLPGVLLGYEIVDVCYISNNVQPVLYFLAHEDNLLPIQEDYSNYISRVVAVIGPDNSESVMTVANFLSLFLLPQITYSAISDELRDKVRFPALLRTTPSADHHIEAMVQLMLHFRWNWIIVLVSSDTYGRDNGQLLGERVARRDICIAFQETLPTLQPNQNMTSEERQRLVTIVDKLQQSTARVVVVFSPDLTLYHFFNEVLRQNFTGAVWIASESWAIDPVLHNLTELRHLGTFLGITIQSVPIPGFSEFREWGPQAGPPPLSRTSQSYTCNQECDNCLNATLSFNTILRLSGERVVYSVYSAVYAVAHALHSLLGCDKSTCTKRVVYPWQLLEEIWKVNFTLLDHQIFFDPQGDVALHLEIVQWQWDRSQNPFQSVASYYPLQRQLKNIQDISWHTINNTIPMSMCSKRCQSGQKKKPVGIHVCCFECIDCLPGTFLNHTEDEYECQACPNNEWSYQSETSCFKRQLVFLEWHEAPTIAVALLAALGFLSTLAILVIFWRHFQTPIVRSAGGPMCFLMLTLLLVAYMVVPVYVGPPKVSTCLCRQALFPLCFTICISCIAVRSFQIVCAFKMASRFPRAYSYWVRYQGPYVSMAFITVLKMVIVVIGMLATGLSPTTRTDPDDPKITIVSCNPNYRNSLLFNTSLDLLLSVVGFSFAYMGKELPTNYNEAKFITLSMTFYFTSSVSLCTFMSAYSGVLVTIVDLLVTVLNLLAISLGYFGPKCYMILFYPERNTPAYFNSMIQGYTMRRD

[2] = biological target: human T1R2/T1R3 sweet receptor heterodimer (wildtype) (human, UniProt Q8TE23 20-839; Q7RTX0 21-852)
Chain of human T1R2/T1R3 sweet receptor heterodimer (wildtype) (Q7RTX0 21-852 C757R limits assumed, one chain of several): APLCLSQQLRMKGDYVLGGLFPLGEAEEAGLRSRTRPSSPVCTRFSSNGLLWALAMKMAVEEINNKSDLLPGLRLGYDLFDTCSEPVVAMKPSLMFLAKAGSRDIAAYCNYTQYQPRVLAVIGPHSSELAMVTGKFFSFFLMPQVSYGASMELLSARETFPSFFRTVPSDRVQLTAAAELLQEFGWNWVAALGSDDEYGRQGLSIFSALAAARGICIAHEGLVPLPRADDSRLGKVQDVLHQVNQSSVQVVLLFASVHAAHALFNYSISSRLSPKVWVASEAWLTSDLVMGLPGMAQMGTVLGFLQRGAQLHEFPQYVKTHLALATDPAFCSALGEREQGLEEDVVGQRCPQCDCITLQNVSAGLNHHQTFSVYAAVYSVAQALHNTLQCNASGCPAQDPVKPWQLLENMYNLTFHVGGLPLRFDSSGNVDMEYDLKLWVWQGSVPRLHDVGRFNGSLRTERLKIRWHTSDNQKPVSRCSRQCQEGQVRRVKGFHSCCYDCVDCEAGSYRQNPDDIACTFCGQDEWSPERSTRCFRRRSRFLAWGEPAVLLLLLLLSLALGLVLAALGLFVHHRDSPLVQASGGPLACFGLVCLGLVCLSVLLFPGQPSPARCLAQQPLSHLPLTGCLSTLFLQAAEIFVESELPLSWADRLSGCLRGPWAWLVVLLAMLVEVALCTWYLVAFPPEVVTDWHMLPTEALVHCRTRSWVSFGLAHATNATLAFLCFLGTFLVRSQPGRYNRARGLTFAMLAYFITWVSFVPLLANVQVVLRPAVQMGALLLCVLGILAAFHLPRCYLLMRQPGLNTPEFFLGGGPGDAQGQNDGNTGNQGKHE

[3] = biological target: T2, CSR:T1R2/CSR:T1R3 chimeric heterodimer (human)
T2 chain 1: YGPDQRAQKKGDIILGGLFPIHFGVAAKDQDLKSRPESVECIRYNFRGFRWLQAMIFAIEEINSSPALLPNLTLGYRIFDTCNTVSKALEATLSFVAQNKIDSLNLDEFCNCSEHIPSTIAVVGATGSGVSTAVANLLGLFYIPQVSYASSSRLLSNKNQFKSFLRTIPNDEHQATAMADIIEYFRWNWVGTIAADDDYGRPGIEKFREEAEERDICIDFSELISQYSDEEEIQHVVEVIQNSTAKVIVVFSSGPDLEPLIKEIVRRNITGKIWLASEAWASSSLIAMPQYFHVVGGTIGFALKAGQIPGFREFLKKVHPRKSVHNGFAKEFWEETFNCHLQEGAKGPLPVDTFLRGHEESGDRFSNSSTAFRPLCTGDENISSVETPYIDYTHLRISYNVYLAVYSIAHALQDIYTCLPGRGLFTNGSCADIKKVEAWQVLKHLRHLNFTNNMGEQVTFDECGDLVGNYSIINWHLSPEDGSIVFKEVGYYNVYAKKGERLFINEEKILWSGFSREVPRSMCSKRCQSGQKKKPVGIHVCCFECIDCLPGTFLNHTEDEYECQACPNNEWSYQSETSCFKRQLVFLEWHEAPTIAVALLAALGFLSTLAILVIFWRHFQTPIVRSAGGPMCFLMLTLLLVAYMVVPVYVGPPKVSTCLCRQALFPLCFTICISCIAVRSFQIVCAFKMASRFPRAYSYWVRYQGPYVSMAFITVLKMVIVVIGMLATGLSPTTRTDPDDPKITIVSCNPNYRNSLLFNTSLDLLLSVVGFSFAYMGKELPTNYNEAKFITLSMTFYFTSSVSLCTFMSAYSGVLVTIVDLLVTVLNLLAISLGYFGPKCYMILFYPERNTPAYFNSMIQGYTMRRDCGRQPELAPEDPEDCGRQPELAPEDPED
T2 chain 2: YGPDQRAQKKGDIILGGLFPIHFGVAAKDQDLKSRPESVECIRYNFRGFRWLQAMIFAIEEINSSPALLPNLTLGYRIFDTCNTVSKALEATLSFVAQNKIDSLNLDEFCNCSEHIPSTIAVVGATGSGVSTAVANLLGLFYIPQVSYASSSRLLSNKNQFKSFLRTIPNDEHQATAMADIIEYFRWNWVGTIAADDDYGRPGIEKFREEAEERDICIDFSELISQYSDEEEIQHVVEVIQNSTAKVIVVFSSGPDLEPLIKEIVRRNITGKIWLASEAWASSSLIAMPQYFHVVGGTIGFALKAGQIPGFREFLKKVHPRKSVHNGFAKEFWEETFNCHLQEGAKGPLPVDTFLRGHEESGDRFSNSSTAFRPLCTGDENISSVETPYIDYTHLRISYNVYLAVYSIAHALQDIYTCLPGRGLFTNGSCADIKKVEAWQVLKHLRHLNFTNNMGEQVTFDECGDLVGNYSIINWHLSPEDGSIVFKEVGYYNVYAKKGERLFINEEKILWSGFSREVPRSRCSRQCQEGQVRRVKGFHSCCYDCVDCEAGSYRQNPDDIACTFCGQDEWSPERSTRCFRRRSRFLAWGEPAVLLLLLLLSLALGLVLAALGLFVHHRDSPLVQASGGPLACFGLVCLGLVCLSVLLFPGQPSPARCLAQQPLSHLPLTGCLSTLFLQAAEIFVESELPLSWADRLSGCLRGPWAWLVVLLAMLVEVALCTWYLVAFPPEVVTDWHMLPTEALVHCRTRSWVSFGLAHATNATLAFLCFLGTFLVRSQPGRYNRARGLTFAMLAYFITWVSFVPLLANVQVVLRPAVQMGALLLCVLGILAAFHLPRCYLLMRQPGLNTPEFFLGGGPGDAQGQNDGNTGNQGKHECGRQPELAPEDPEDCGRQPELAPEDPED

net increase in fluorescence over baseline (Fluo-4 calcium assay, AVG of six replicates), aspartame 0.85 mM [1]: 41 RFU | net increase in fluorescence over baseline (Fluo-4 calcium assay, AVG of six replicates), aspartame 0.85 mM [2]: 531 RFU | net increase in fluorescence over baseline (Fluo-4 calcium assay, AVG of six replicates), aspartame 0.85 mM [3]: 72 RFU
B1: Aspartame (aspartyl-phenylalanine-1-methyl ester, a dipeptide) (peptide)
peptide: Asp-Phe-OMe
